Assay results: patent US7387779B2, “Anti-angiogenic proteins and fragments and methods of use thereof” (Beth Israel Deaconess Medical Center, priority 1998, dated 2008)

What was measured:
HUVEC cells = assay: Cell surface labeling with biotinylated Tumstatin-44-131; assay type: binding, human; details: streptavidin-FITC
Experimental: Recombinant E. Coli-expressed Tumstatin-44-131 was biotinylated using Sulfo-NHS-LC-Biotin (Pierce Chem. Co). Tumstatin-44-131, in a buffer containing 10% DMSO and 5% D-mannitol, was incubated with 12 M excess of Sulfo-NHS-LC-Biotin overnight at 4° C. The biotinylated Tumstatin-44-131 precipitated out of solution during this incubation. The precipitate was washed twice with distilled water, resuspended in DMSO, and then mixed 1:1 with distilled water to obtain a final concentration of approximately 4 mg/ml. The biotinylated Tumstatin-44-131 was stored at 4° C.
For cell surface labeling, subconfluent HUVEC cells were removed from the flask using EDTA with light trypsinization, and then washed twice with DMEM containing 2% BSA. Cells were then resuspended in DMEM/BSA and incubated for 1 hour at 4° C. with either biotin-labeled Tumstatin-44-131 or the product of a mock biotin reaction run without Tumstatin-44-131. Cells were then washed twice with DMEM/BSA and then incubated with streptavidin-FITC (“Neutravidin-FITC”, Pierce Chem. Co) for thirty minutes at 4° C. Samples were then viewed on a Nikon Eclipse E600 fluorescent microscope and analyzed by flow cytometry.

PC-3 tumors = assay: PC-3 prostate tumor xenograft in SCID mice; assay type: in vivo; details: 10 mg/kg
Experimental: Human prostate adenocarcinoma cells (PC-3 cells) were harvested from culture and 2 million cells in sterile PBS were injected subcutaneously into 7- to 9-week-old male SCID mice. The tumors grew for approximately 4 weeks after which animals were divided into groups of 4 mice. […] The control group received equal volumes of PBS each day. At the start of treatment (day 0), the tumors ranged in volume from 88 mm^3 to 135 mm^3 for the control mice, and 108 mm^3 to 149 mm^3 for the Canstatin-treated mice. Each group contained five mice. […] Canstatin-treated (▪) tumors increased only marginally in size relative to controls (□).

HEK 293 cells [1] = assay: Proliferation of control cells, 3H-thymidine incorporation; assay type: cell-based, human; details: Canstatin doses up to 40 mg/ml
Experimental: Bovine calf […] endothelial (C-PAE) cells were grown to confluence in DMEM with 10% fetal calf serum (FCS) and kept contact inhibited for 48 hours. Cells were harvested by trypsinization (Life Technologies/Gibco BRL, Gaithersberg, Md., USA) at 37° C. for 5 minutes. A suspension of 12,500 cells in DMEM with 0.5% FCS was added to each well of a 24-well plate coated with 10 μg/ml fibronectin. The cells were incubated for 24 hours at 37° C. C. with 5% CO2 and 95% humidity. Medium was removed, and replaced with DMEM containing 0.5% FCS (unstimulated) or 10% FCS (stimulated and treated cells). 786-O, PC-3 and HEK 293 cells served as controls and were also grown to confluency, trypsinized and plated in the same manner. Cells were treated with concentrations of Canstatin or endostatin ranging from 0.025 to 40 mg/ml in triplicate. In thymidine incorporation experiments, all wells received […] of ^3H-thymidine at the time of treatment. After 24 hours, medium was removed and the wells were washed 3 times with PBS. Radioactivity was extracted with 1N NaOH and added to a scintillation vial containing 4 ml of ScintiVerse II (Fisher Scientific, Pittsburgh, Pa., USA) solution. Thymidine incorporation was measured using a scintillation counter.

ERK = ERK activation (phospho-ERK western blot) in HUVEC; assay type: cell-based, human; details: 20 μg/ml
Experimental: In order to further understand the molecular mechanisms involved in Canstatin's anti-proliferative and anti-migratory activities, the effect of Canstatin on ERK (Extracellular signal-Regulated Kinase) activation induced by 20% fetal bovine serum and endothelial mitogens was assessed. HUVEC cells were cultured overnight in McCoy's medium supplemented with 20% FBS, 1% penicillin/streptomycin, 100 μg/ml heparin and 50 μg/ml endothelial mitogen (Biomedical Technologies, Inc., Cambridge, Mass., USA). The following day, cells were washed and grown for 4 hours in low serum medium (McCoy's medium supplemented with 1% penicillin/streptomycin, 100 μg/ml heparin and 5% FBS). After 4 hours, the medium was replaced with fresh low serum medium with or without 20 μg/ml Canstatin. One hour later the serum concentration was adjusted to 20% and endothelial mitogen was added to a final concentration of 50 μg/ml. At 0, 5, 10, 25, and 40 minutes, the cells were washed with PBS and lysed with passive lysis mix (Promega, Madison, Wis., USA) plus leupeptin, PMSF, NaF, Na3VO4, β-glycerophosphate, and sodium pyrophosphate. Lysates were quantified for protein concentration and separated on 12% SDS-PAGE gels. Western blots of phospho-ERK were made for serum-treated and serum+Canstatin-treated HUVECs using anti-phospho-ERK antibodies (New England Biolabs, Beverly, Mass., USA). […]

786-O cells = assay: Annexin V-FITC apoptosis assay; assay type: cell-based, human; details: 15 μg/ml
Experimental: (§1) Annexin V-FITC Labeling. In order to establish apoptosis as the potential mode of action for Canstatin, Annexin V-FITC was used to label externalized phosphatidylserine (PS), to assess apoptotic cells. 0.5×10^6 C-PAE cells, PC-3, 786-O and HEK 293 cells were added to each well of a 6 well tissue culture plate in 10% FBS supplemented DMEM (BioWhittaker, Walkersville, Md., USA) overnight. The next day, fresh medium was added to all wells together with 40 ng/ml TNF-α (positive control) or 15 μg/ml Canstatin. Control cells received an equal volume of PBS. After 24 hours of treatment, medium containing detached cells was collected and attached cells were trypsinized and combined with detached cells and centrifuged at 3,000×g. Cells were then washed and phosphatidyl-serine externalization (an early apoptotic indicator) was measured by labeling with FITC-labeled annexin V (Clontech, Palo Alto, Calif., USA) according to the manufacturer's instructions. Annexin V-FITC-labeled cells were counted using a FAC Star Plus flow cytometer (Becton-Dickenson, Waltham, Mass., USA). For each treatment 15,000 cells were counted and stored in listmode.

HEK 293 cells [2] = assay: Annexin V-FITC apoptosis assay; assay type: cell-based, human; details: 15 μg/ml
Experimental: as §1

αvβ3 integrin protein = target: T1, αvβ3 integrin protein (Homo sapiens, UniProt P05106+P06756); assay: Competition proliferation assay with soluble αvβ3 protein, WM-164 cells; assay type: cell-based; details: αvβ3 protein at 2 μg/ml
T1 construct: purchased CHEMICON Int'l, Temecula, Calif., USA
Experimental: αvβ3 was then tested for its ability to negate the anti-proliferative effect of Tum-4 on melanoma cells. Tumstatin and Tum-4 were pre-incubated for 30 minutes at room temperature with αvβ3 integrin protein, then added to WM-164 cells grown in 96-well plates. After 48 hours of incubation, the increase in cell number was determined by methylene blue staining. Tumstatin had no effect on WM-164 cells.

bovine endothelial cells = assay: Cap-dependent (LUC) / cap-independent (CAT) translation reporter; assay type: cell-based; details: 4.5 μM; 21 hours

T1 sequence (P06756 31-889 limits assumed): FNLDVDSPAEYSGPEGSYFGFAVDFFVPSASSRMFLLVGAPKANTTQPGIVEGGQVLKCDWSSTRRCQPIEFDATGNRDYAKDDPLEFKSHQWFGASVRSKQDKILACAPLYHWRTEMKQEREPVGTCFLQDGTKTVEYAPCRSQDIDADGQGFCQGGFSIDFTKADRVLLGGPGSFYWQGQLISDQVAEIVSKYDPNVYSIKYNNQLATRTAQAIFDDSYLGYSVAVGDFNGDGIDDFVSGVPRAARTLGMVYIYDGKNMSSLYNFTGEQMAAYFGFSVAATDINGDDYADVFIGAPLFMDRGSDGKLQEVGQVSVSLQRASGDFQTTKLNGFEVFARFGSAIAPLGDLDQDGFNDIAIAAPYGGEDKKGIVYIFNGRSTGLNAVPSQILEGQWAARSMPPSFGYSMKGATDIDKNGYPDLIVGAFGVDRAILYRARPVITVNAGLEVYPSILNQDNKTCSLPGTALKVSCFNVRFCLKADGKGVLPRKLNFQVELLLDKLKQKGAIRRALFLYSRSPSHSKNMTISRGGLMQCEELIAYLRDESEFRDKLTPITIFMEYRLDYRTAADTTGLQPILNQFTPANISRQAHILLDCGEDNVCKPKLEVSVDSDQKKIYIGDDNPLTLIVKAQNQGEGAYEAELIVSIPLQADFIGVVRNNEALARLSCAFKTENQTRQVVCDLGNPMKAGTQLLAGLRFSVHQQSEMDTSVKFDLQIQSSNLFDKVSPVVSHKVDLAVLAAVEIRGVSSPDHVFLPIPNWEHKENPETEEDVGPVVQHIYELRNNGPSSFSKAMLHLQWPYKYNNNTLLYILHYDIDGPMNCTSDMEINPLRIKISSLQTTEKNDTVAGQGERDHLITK
T1 sequence (P06756 891-1048 partner limits assumed): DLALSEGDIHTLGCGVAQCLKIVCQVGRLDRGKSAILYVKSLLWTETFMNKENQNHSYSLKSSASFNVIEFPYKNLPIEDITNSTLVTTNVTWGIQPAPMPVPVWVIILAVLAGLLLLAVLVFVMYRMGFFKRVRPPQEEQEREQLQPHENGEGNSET
T1 sequence (P05106 27-788): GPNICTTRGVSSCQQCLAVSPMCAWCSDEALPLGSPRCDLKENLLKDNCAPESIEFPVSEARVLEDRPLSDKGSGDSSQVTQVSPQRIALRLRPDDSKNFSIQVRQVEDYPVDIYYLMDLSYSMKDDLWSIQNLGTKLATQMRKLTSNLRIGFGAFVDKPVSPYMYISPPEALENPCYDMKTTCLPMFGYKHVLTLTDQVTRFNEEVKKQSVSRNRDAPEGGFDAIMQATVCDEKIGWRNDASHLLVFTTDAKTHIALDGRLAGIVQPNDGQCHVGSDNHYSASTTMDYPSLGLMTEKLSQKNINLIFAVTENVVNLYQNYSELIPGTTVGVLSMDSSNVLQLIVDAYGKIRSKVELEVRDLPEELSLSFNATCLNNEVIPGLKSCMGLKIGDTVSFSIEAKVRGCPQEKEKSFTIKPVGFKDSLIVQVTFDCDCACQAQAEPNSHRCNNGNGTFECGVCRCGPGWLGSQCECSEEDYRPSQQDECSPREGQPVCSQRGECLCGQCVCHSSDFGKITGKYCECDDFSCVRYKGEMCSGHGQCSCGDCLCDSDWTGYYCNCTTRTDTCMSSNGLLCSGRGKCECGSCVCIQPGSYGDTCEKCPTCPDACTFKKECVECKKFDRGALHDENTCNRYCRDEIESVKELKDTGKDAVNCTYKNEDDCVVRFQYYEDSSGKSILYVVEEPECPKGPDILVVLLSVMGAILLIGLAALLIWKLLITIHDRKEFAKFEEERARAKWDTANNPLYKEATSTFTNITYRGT

B1: Tumstatin-44-131: residues 44 to 131 of full-length Tumstatin (SEQ ID NO:33) (protein)
chain: FSFLFVQGNQRAHGQDLGTLGSCLQRFTTMPFLFCNVNDVCNFASRNDYSYWLSTPALMPMNMAPITGRALEPYISRCTVCEGPAIAI
modifications: Tumstatin-45-132 (amino acids 45-132 of SEQ ID NO10)
Which “binding to the endothelial cell surface” value (HUVEC cells) does the source give for B1 here?
Its value is “binds the surface of endothelial cells”.

B2: Canstatin: NC1 domain of the α2 chain of Type IV collagen (SEQ ID NO:6) (protein, listed as Homo sapiens)
chain: VSIGYLLVKHSQTDQEPMCPVGMNKLWSGYSLLYFEGQEKAHNQDLGLAGSCLARFSTMPFLYCNPGDVCYYASRNDKSYWLSTTAPLPMMPVAEDEIKPYISRCSVCEAPAIAIAVHSQDVSIPHCPAGWRSLWIGYSFLMHTAAGDEGGGQSLVSPGSCLEDFRATPFIECNGGRGTCHYYANKYSFWLTTIPEQSFQGSPSADTLKAGLIRTHISRCQVCMKNL
With B2 as the molecule, how does the “fractional tumor volume as % of vehicle only-injected mice” value (PC-3 tumors) read?
The value was 55%.

And the “fractional tumor volume, fold less than vehicle” value (PC-3 tumors)?
The value was 1.8 fold.

What about the effect on proliferation (HEK 293 cells [1]) of the same molecule?
Its effect on proliferation is “No significant effect”.

And the “effect on ERK activation” value (ERK)?
The value was “did not alter early activation of ERK”.

And the “apoptosis of 786-O cells” value (786-O cells)?
The value was “no significant effect”.

What about the “apoptosis of HEK 293 cells” value (HEK 293 cells [2]) of the same molecule?
Its value is “no significant effect”.

B3: Tum-4: residues 181 to 244 of Tumstatin (SEQ ID NO:25) (protein)
chain: EFRASPFLECHGRGTCNYYSNSYSFWLASLNPERMFRKPIPSTVKAGELEKIISRCQVCMKKRH
modifications: Tum-4 (amino acids 181-244 of SEQ ID NO10)
B3 was tested. Which “recovery of anti-proliferative effect by soluble αvβ3 protein” value (αvβ3 integrin protein) did it give?
The value was 76.7%.

B4: endostatin: tumor associated angiogenesis inhibitor used as comparator (protein, UniProt P39060 1572-1754, looked up)
Endostatin: HSHRDFQPVLHLVALNSPLSGGMRGIRGADFQCFQQARAVGLAGTFRAFLSSRLQDLYSIVRRADRAAVPIVNLKDELLFPSWEALFSGSEGPLKPGARIFSFDGKDVLRHPTWPQKSVWHGSDPNGRRLTESYCETWRTEAPSATGQASSLLGGRLLGQSAASCHHAYIVLCIENSFMTASK
modifications: Endostatin
Which “decrease of cap-dependent translation of LUC” value (bovine endothelial cells) does the source give for B4 here?
Its value is “did not affect cap-dependent translation”.
